Among the data in the Human Domainome abundance scans (Beltran et al. 2025) are abundance fitness values, retold here.

B1: SAM and SH3 domain-containing protein 1, residues 630 to 700; numbered along this chain, O94885 (parent)
chain: GRPPQPKSVEDLLDRINLKEHMPTFLFNGYEDLDTFKLLEEEDLDELNIRDPEHRAVLLTAVELLQEYDSN

± gives the uncertainty stated by the source.

The variants in this data set derive from B1. The data set is described as follows: abundance fitness (aPCA) (normalised: wild type 0, dead -1); higher = more abundant; growth selection in yeast, the domain comes from the species named. The following applies: Homo sapiens.
With GRPPQPKSVEDLLDRINLKEHMPTFLFSGYEDLDTFKLLEEEDLDELNIRDPEHRAVLLTAVELLQEYDSN [N28S], the abundance fitness was -0.395 ± 0.039.
In the case of GRPPQPKSVEDLLDRINLKEHMPTFLFNGYEDLDTFKLLEEHDLDELNIRDPEHRAVLLTAVELLQEYDSN [E42H] it was 0.055 ± 0.041; in that of GRPPQPKSVEDLLDRINLKEHMPTFLFNGYEDLDTFKLLEEKDLDELNIRDPEHRAVLLTAVELLQEYDSN [E42K], 0.283 ± 0.048; in that of GRPPQPKSVEDLLDRIRLKEHMPTFLFNGYEDLDTFKLLEEEDLDELNIRDPEHRAVLLTAVELLQEYDSN [N17R], -0.645 ± 0.051.
In the case of GRPPQPKSVEDLLDRINLKEHMPTFLFNGYEDLDTFKLLEEEDLDELAIRDPEHRAVLLTAVELLQEYDSN [N48A], the abundance fitness was -0.343 ± 0.088.
In the case of GRPPQPKSVEDLLDRINLKEHMPTFLFNGYEDLDTFKLLEEEDLDELNIRDPEHRAVLLTAVELLQEYDSY [N71Y] it was -0.132 ± 0.062; in that of GRPPQPKSVEDLLDRINLKEHRPTFLFNGYEDLDTFKLLEEEDLDELNIRDPEHRAVLLTAVELLQEYDSN [M22R], -0.612 ± 0.046.
In the case of GRPPQPKSVEDLLDRINLKEHEPTFLFNGYEDLDTFKLLEEEDLDELNIRDPEHRAVLLTAVELLQEYDSN [M22E] it was -0.213 ± 0.054.
In the case of GRPPQPKSVEDLLDRINLKEHMPTFLFNGYEDLDTFKLLEEEFLDELNIRDPEHRAVLLTAVELLQEYDSN [D43F] it was -1.05 ± 0.085; in that of GRPPQPKSVEDLLDRINLKEHMPTFLFNGYEDLDTFKLLEEEGLDELNIRDPEHRAVLLTAVELLQEYDSN [D43G], -0.444 ± 0.053; in that of GRPPQPKSVEDLLDRINLKEHMPTFLFNGYEDLDTFKLLEEEDLDELNIRDPEHRAVLLTAVETLQEYDSN [L64T], 0.166 ± 0.038.
As for GRPPQPKSVEDLLDRINLKEHMPTPLFNGYEDLDTFKLLEEEDLDELNIRDPEHRAVLLTAVELLQEYDSN [F25P], the abundance fitness was -0.925 ± 0.084.
In the case of GRPPQPKSVEDLLDRINLKEHMHTFLFNGYEDLDTFKLLEEEDLDELNIRDPEHRAVLLTAVELLQEYDSN [P23H] it was -0.243 ± 0.052; in that of GRPPQPKSVEDLLDRINLKEHMITFLFNGYEDLDTFKLLEEEDLDELNIRDPEHRAVLLTAVELLQEYDSN [P23I], -0.398 ± 0.063.
In the case of GRPPQPKSVEDLLDRINLKEHMDTFLFNGYEDLDTFKLLEEEDLDELNIRDPEHRAVLLTAVELLQEYDSN [P23D] it was 0.199 ± 0.047.
In the case of GRPPQPASVEDLLDRINLKEHMPTFLFNGYEDLDTFKLLEEEDLDELNIRDPEHRAVLLTAVELLQEYDSN [K7A] it was -0.066 ± 0.046.
For GRPPQPKSVEDLLDRINLKEHMPTFLFNGYEDLDTFHLLEEEDLDELNIRDPEHRAVLLTAVELLQEYDSN [K37H], the abundance fitness is -0.76 ± 0.086.
In the case of GRPPQPKSVEDLLDRINLKEHMPTFLFNGYEDLDTFKLLEEEDLDEINIRDPEHRAVLLTAVELLQEYDSN [L47I] it was -0.671 ± 0.058.
In the case of GRPPQPKSVEDLLDRINLKEHMPTFLFNGYEDLDTFKLLEEEDLDEKNIRDPEHRAVLLTAVELLQEYDSN [L47K] it was -0.781 ± 0.1; in that of GRPPQPKSVEDLLDRINLKEHMPTFLFNGYEDLDTFKLLEEEDLDELNIRDPEHRAVLLTAVELLQEYWSN [D69W], -0.752 ± 0.093; in that of GRPPQPKSVEDLLDRINLKEHMPTFLFNGYEDLDTFKLLEEEDLDELNIRDPEHRAVLLTACELLQEYDSN [V62C], -0.241 ± 0.051.
In the case of GRPPQPKSVEDLLDRINLKEHMPTFLFNGYEDLDTFKLLEEEDLDELNIRDPEHRAVLLTAEELLQEYDSN [V62E] it was -0.489 ± 0.1; in that of GRPPQPKSVEDLLDRINLKEHMPTFLFNGYEDLDTFKLLEEEDLDELNIRDPEHRAVLLTAVELLQEPDSN [Y68P], 0.015 ± 0.047; in that of GRPPQPKSVEDLLDRINLKEHMPTFLFNGYEDLDTFKLLEEEDLDELNIRDPEHRAVLHTAVELLQEYDSN [L59H], -0.564 ± 0.058.
In the case of GRPPQPKSVEDLLDRINLKEHMPTFLFNGYEDLDTFKLLEEEDLDELNIRDPEHRAVLPTAVELLQEYDSN [L59P], the abundance fitness is -0.445 ± 0.051.
In the case of GRPPQPKSVEDLLDRINLKEHMPTFLFNGYEDLDTFKLLEEEDLDELNIRDPPHRAVLLTAVELLQEYDSN [E53P] it was -0.924 ± 0.09; in that of GRPPQPKSVEDLLDRINLKEHMPTFLFNGYEDLDTFKLLEEEDLDELNIRDPLHRAVLLTAVELLQEYDSN [E53L], -0.486 ± 0.045.
In the case of GRPPQPKSVEDLLDRINLKEHMPTFLFNGYEDLDTFKLQEEEDLDELNIRDPEHRAVLLTAVELLQEYDSN [L39Q] it was -0.892 ± 0.098; in that of GRPPQPKSVEDLLDRINLKEHMPTFLFNGYEDLDTFKLWEEEDLDELNIRDPEHRAVLLTAVELLQEYDSN [L39W], -1.19 ± 0.14.
Take GRPPQPKSVEDLLDRINLKEHMPTFLFNGYEDLDTFKLNEEEDLDELNIRDPEHRAVLLTAVELLQEYDSN [L39N]: the abundance fitness was -0.851 ± 0.075.
In the case of GRPPQNKSVEDLLDRINLKEHMPTFLFNGYEDLDTFKLLEEEDLDELNIRDPEHRAVLLTAVELLQEYDSN [P6N] it was -0.792 ± 0.11; in that of GRPPQPKSVEDLLDRINLKEHMPTFLFNGEEDLDTFKLLEEEDLDELNIRDPEHRAVLLTAVELLQEYDSN [Y30E], -0.515 ± 0.092; in that of GRPPQPKSVEDLLDRINLKEHMPDFLFNGYEDLDTFKLLEEEDLDELNIRDPEHRAVLLTAVELLQEYDSN [T24D], -0.622 ± 0.064.
With GRPPQPKSVEDLLDRINLKEHMPLFLFNGYEDLDTFKLLEEEDLDELNIRDPEHRAVLLTAVELLQEYDSN [T24L], the abundance fitness is -0.367 ± 0.04.
In the case of GRPPQPKSVEDLLDNINLKEHMPTFLFNGYEDLDTFKLLEEEDLDELNIRDPEHRAVLLTAVELLQEYDSN [R15N] it was -0.075 ± 0.046.
In the case of GRPWQPKSVEDLLDRINLKEHMPTFLFNGYEDLDTFKLLEEEDLDELNIRDPEHRAVLLTAVELLQEYDSN [P4W] it was -0.008 ± 0.065.
In the case of GRPAQPKSVEDLLDRINLKEHMPTFLFNGYEDLDTFKLLEEEDLDELNIRDPEHRAVLLTAVELLQEYDSN [P4A] it was 0.046 ± 0.051; in that of GRPCQPKSVEDLLDRINLKEHMPTFLFNGYEDLDTFKLLEEEDLDELNIRDPEHRAVLLTAVELLQEYDSN [P4C], -0.088 ± 0.072.
